Data as given in US20220265715A1 (EUREKA THERAPEUTICS, published 2022).

B1: Anti-AFP-CD30z-CAR (other)
chain: QSVLTQPASVSGSPGQSITISCTGTSSDVGGYNYVSWYQQHPGKAPKLMIYDVNNRPSEVSNRFSGSKSGNTASLTISGLQAEDEADYYCSSYTTGSRAVFGGGTKLTVLGSRGGGGSGGGGSGGGGSLEMAEVQLVQSGAEVKKPGESLTISCKASGYSFPNYWITWVRQMSGGGLEWMGRIDPGDSYTTYNPSFQGHVTISIDKSTNTAYLHWNSLKASDTAMYYCARYYVSLVDIWGQGTLVTVSSEQKLISEEDLAAATGAPPLGTQPDCNPTPENGEAPASTSPTQSLLVDSQASKTLPIPTSAPVALSSTGKPVLDAGPVLFWVILVLVVVVGSSAFLLCHRRACRKRIRQKLHLCYPVQTSQPKLELVDSRPRRSSTQLRSGASVTEPVAEERGLMSQPLMETCHSVGAAYLESLPLQDASPAGGPSSPRDLPEPRVSTEHTNNKIEKIYIMKADTVIVGTVKAELPEGRGLAGPAEPELEEELEADHTPHYPEQETEPPLGSCSDVMLSVEEEGKEDPLPTAASGKRVKFSRSADAPAYQQGQNQLYNELNLGRREEYDVLDKRRGRDPEMGGKPRRKNPQEGLYNELQKDKMAEAYSEIGMKGERRRGKGHDGLYQGLSTATKDTYDALHMQALPPR
notes: Chimeric antigen receptor on transduced primary human T cells: anti-AFP/MHC scFv, myc tag, CD30 TM, CD30 costimulatory domain, CD3zeta; also called αAFP -CD30z CAR
B2: Anti-AFP-CD28z-CAR (other)
chain: QSVLTQPASVSGSPGQSITISCTGTSSDVGGYNYVSWYQQHPGKAPKLMIYDVNNRPSEVSNRFSGSKSGNTASLTISGLQAEDEADYYCSSYTTGSRAVFGGGTKLTVLGSRGGGGSGGGGSGGGGSLEMAEVQLVQSGAEVKKPGESLTISCKASGYSFPNYWITWVRQMSGGGLEWMGRIDPGDSYTTYNPSFQGHVTISIDKSTNTAYLHWNSLKASDTAMYYCARYYVSLVDIWGQGTLVTVSSEQKLISEEDLAAAIEVMYPPPYLDNEKSNGTIIHVKGKHLCPSPLFPGPSKPFWVLVVVGGVLACYSLLVTVAFIIFWVRSKRSRLLHSDYMNMTPRRPGPTRKHYQPYAPPRDFAAYRSRVKFSRSADAPAYQQGQNQLYNELNLGRREEYDVLDKRRGRDPEMGGKPRRKNPQEGLYNELQKDKMAEAYSEIGMKGERRRGKGHDGLYQGLSTATKDTYDALHMQALPPR
notes: Chimeric antigen receptor on transduced primary human T cells: anti-AFP/MHC scFv, myc tag, CD28 TM, CD28 costimulatory domain, CD3zeta; also called αAFP -CD28z CAR

Biological target: T1, biotinylated AFP158/HLA-A*02:01 tetramer (human, biotinylated via the BSP peptide linked to the C-terminal end of the HLA-A*02:01 extracellular domain)
T1 construct: also called AFP158 tetramer; not shown: BSP peptide (BirA biotinylation site) at the C-terminus
Assay: flow cytometry, AFP158/HLA-A*02:01 tetramer staining of CAR-transduced T cells

| Binder | binding result |
| --- | --- |
| B1 | binds |
| B2 | binds |
